The values that follow come from doi:10.1101/2021.05.05.442812 (bioRxiv, 2021).

The target of assay [1] is β subunit of E. coli RNAP (E. coli, UniProt P0A8V2 1-1342). The assay is described as follows: cryo-EM structure.
The target of assay [2] is β’ subunit of E. coli RNAP (E. coli, UniProt P0A8T7 1-1407). The assay is described as follows: cryo-EM structure.
β’ subunit of E. coli RNAP, sequence (P0A8T7 whole entry): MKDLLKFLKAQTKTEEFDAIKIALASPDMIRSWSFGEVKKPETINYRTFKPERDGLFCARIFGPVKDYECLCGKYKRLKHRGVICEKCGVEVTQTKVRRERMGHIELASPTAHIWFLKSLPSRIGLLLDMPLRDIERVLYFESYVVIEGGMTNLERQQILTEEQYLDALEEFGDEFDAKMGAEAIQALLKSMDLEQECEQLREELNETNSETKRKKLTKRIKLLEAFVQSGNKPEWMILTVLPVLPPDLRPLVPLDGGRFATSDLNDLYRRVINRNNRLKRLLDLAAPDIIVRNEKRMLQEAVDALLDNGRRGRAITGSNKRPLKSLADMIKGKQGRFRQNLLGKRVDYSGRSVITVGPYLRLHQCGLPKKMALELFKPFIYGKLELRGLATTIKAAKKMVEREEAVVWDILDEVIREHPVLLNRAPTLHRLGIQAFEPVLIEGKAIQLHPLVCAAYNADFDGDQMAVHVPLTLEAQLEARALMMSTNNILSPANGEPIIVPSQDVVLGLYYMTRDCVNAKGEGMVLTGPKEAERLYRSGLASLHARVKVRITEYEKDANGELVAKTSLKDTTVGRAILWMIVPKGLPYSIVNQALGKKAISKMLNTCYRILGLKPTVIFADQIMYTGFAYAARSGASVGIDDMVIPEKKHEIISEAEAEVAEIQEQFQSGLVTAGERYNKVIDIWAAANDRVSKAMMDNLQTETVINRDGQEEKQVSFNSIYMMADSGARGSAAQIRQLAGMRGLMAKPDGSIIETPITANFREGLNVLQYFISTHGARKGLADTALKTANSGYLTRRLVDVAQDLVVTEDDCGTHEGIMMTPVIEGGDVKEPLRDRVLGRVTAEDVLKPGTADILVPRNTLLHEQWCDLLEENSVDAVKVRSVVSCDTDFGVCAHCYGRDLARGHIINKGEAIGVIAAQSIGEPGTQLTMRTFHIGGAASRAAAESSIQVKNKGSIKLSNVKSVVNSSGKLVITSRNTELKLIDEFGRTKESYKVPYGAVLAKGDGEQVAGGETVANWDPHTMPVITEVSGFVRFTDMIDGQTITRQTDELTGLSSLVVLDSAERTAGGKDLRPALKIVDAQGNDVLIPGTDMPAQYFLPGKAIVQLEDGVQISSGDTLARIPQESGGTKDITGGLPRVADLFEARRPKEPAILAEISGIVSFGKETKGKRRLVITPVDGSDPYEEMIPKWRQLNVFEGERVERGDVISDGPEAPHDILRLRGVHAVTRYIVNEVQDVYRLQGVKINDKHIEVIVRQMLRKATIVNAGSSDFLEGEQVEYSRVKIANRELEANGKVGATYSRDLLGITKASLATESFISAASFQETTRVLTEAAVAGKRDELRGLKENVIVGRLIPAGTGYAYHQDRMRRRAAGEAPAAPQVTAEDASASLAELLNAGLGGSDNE

β subunit of E. coli RNAP, sequence (P0A8V2 whole entry): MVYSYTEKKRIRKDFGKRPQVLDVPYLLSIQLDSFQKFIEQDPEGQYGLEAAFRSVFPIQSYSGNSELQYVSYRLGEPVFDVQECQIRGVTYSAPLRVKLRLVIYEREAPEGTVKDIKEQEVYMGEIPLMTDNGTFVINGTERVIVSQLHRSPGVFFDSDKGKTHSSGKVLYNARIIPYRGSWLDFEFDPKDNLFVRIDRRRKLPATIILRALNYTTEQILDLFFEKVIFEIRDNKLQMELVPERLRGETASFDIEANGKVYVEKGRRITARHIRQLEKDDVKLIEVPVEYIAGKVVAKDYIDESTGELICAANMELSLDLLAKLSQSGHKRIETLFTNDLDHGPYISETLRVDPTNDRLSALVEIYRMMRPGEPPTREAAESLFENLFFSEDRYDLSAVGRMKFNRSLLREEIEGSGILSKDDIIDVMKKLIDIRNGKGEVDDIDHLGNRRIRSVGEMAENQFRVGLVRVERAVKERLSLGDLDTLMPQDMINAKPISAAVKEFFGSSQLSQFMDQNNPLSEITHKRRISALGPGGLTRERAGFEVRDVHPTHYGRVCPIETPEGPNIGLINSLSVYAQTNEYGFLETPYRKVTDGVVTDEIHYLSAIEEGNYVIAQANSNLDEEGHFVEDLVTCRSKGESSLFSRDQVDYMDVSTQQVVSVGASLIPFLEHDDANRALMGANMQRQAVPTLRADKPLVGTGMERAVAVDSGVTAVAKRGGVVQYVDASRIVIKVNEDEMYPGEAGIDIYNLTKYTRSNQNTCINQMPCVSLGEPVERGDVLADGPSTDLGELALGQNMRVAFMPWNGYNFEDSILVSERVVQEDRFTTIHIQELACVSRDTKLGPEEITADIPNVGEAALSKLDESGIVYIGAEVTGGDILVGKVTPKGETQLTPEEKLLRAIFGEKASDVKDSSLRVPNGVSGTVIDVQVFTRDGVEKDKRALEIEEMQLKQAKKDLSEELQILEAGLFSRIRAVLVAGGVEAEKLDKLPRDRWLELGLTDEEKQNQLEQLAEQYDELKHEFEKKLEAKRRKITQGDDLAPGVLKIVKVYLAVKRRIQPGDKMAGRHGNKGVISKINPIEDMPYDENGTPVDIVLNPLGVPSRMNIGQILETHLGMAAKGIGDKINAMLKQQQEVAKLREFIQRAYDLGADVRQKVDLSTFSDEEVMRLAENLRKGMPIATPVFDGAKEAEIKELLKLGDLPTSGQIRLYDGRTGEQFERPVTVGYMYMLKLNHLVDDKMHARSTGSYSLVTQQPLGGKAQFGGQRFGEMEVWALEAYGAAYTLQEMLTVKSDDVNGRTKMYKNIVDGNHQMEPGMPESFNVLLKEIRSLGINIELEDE

B1: E. coli RapA protein (enzyme, UniProt P60240 1-968, looked up)
chain: MPFTLGQRWISDTESELGLGTVVAVDARTVTLLFPSTGENRLYARSDSPVTRVMFNPGDTITSHDGWQMQVEEVKEENGLLTYIGTRLDTEESGVALREVFLDSKLVFSKPQDRLFAGQIDRMDRFALRYRARKYSSEQFRMPYSGLRGQRTSLIPHQLNIAHDVGRRHAPRVLLADEVGLGKTIEAGMILHQQLLSGAAERVLIIVPETLQHQWLVEMLRRFNLRFALFDDERYAEAQHDAYNPFDTEQLVICSLDFARRSKQRLEHLCEAEWDLLVVDEAHHLVWSEDAPSREYQAIEQLAEHVPGVLLLTATPEQLGMESHFARLRLLDPNRFHDFAQFVEEQKNYRPVADAVAMLLAGNKLSNDELNMLGEMIGEQDIEPLLQAANSDSEDAQSARQELVSMLMDRHGTSRVLFRNTRNGVKGFPKRELHTIKLPLPTQYQTAIKVSGIMGARKSAEDRARDMLYPERIYQEFEGDNATWWNFDPRVEWLMGYLTSHRSQKVLVICAKAATALQLEQVLREREGIRAAVFHEGMSIIERDRAAAWFAEEDTGAQVLLCSEIGSEGRNFQFASHMVMFDLPFNPDLLEQRIGRLDRIGQAHDIQIHVPYLEKTAQSVLVRWYHEGLDAFEHTCPTGRTIYDSVYNDLINYLASPDQTEGFDDLIKNCREQHEALKAQLEQGRDRLLEIHSNGGEKAQALAESIEEQDDDTNLIAFAMNLFDIIGINQDDRGDNMIVLTPSDHMLVPDFPGLSEDGITITFDREVALAREDAQFITWEHPLIRNGLDLILSGDTGSSTISLLKNKALPVGTLLVELIYVVEAQAPKQLQLNRFLPPTPVRMLLDKNGNNLAAQVEFETFNRQLNAVNRHTGSKLVNAVQQDVHAILQLGEAQIEKSARALIDAARNEADEKLSAELSRLEALRAVNPNIRDDELTAIESNRQQVMESLDQAGWRLDALRLIVVTHQ
Take B1: the binding result in assay [1] and in assay [2] was “binds” each time.
